# B1: Grb2 SH3C (protein)
# chain: QQPTYVQALFDFDPQEDGELGFRRGDFIHVMDNSDPNWWKGACHGQTGMFPRNYVTPVNR
# Target: Gab2a 12mer peptide (Homo sapiens, UniProt Q9UQC2)
# Assay: SPR
# Gab2a 12mer peptide, sequence (Q9UQC2 whole entry): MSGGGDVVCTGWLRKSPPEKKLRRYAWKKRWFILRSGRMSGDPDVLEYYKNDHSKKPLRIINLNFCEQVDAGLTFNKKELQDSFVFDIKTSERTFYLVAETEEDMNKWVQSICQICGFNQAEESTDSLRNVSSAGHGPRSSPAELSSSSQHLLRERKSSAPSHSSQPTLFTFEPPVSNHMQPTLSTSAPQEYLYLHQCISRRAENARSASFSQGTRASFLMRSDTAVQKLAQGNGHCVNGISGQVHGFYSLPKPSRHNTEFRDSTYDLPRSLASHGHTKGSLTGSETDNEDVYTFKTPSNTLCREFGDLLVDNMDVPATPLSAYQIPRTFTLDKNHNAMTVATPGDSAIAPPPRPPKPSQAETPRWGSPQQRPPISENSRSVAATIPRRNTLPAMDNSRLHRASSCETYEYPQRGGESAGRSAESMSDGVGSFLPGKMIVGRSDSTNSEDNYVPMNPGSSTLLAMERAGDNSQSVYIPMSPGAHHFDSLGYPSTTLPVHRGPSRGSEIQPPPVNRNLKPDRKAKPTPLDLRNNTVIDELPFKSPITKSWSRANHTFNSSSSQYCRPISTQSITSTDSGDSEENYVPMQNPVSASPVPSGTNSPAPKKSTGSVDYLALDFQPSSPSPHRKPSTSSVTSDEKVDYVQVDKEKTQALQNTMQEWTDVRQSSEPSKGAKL
binder,measurement,value
B1,Kd,161 µM
